The text below walks through data of US12473352 (SUN YAT SEN UNIVERSITY, dated 2025).

T1: human IFP35 protein (human, UniProt P80217 1-286, limits assumed)
T1 construct: also called interferon-induced protein 35; IFI35
T1 chain: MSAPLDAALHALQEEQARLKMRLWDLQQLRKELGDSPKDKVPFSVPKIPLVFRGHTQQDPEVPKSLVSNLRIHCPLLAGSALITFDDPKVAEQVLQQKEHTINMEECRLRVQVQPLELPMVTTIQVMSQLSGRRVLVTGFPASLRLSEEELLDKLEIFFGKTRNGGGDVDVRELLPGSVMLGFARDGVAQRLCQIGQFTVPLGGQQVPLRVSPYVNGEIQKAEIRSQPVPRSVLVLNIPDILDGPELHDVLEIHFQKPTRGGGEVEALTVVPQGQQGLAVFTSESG

B1: 35NIDmAb (antibody, V domains shown)
VH: VQLVESGPELKKPGETVKISCKASGYTFTNYGMNWVKQAPGKGLKWMGWINTYTGEPTFADDFKGRFAFSLETSASTAYLQINNLKNEDTATYFCARYGYSWAMDYWGQGTSVTVSS
VL: DIVMTQSPAIMSASPGEKVTMTCSASSSVSYMHWYQQKSGTSPKRWIYDTSKLASGVPARFSGSGSGTSYSLTISSMEAEDAATYYCQQWSSNPPITFGAGTKLEIK
notes: Mouse monoclonal antibody from hybridoma ascites; also called AE001-VH+VL; AE001-VH+VL (35NIDmAb)
B2: AE001-H3+L3 (antibody, V domains shown)
VH: QVQLVQSGAEVKKPGASVKVSCKASGYTFTNYGMNWVRQAPGQGLEWMGWINTYTGEPTVAQKFQGRFTFTLDTSTSTAYLELSSLRNEDTAVYFCARYGYSWAMDYWGQGTSVTVSS
VL: DIQMTQSPSSLSASVGDRVTITCQASSSVSYMHWYQQKPGKAPKRLIYDTSKLASGVPSRFSGSGSGTDYTLTISSLQPEDIATYYCQQWSSNPPITFGAGTKLEIK
notes: The same doubt about the 'constant region' label applies as for AE001-H1+L1; also called AE001H3 + AE001L3; humanized antibody
B3: AE001-H1+L1 (antibody, V domains shown)
VH: B2 VH with Q6E, V20I, R38K, E46K, V60F, K63D, T76A, E82Q, L83I
VL: B2 VL with L11M, I21M, A42S, L46W, L77M
notes: also called AE001H1 + AE001L1; humanized antibody
B4: AE001-H2+L2 (antibody, V domains shown)
VH: B2 VH with V20I, V60F, L83I
VL: B2 VL with I21M, L46W, L77M
notes: Humanized form of 35NIDmAb with the same CDRs; The same doubt about the 'constant region' label applies as for AE001-H1+L1; also called AE001H2 + AE001L2; humanized antibody
B5: AE001-8 (antibody, human IgG1, V domains shown)
VH: B2 VH
VL: B2 VL with S92P, N93L
notes: Human IgG1; CDR mutant of AE001-H3+L3; also called AE001-6Hc + 8Lc; AE001-6HC + 8LC
B6: IFP35 NID (other)
chain: IQVMSQLSGRRVLVTGFPASLRLSEEELLDKLEIFFGKTRNGGGDVDVRELLPGSVMLGFARDGVAQRLCQIGQFTVPLGGQQVPLRVSPYVNGEIQ
notes: also called NID domain of IFP35 (a fragment consisting of amino acids at positions 124-220); antigen IFP35 NID
B7: AE001-6 (antibody, human IgG1, V domains shown)
VH: B2 VH
VL: B2 VL with S92P, N93Y
notes: Human IgG1; CDR mutant of AE001-H3+L3; also called AE001-6Hc + Lc; AE001-6HC + LC
B8: AE001-9 (antibody, human IgG1, V domains shown)
VH: B2 VH
VL: B2 VL with S92P, N93R
notes: Human IgG1; CDR mutant of AE001-H3+L3; also called AE001-6Hc + 9Lc; AE001-6HC + 9LC
B9: AE001-7 (antibody, human IgG1, V domains shown)
VH: B2 VH
VL: B2 VL with P94S, P95W, I96S
notes: Human IgG1; CDR mutant of AE001-H3+L3; also called AE001-6Hc + 7Lc; AE001-6HC + 7LC

One may read the Kd as the concentration at which binding is half-saturated. High values mean a looser complex, low ones a tighter complex. The term EC50 (read off the curve) denotes the concentration giving half of the maximal effect. The koff is the first-order rate constant of dissociation. The term kon denotes the rate constant with which the complex forms.

Changes are numbered by the printed parent chain.

One data set addresses B6. Put plainly: method not stated.
Molecule B1 had a dissociation constant Kd of 28 nM. That is a double-digit nanomolar value.

In a further data set the target is T1, human IFP35 protein. Put plainly: ELISA (OD450) on human IFP35 protein.
With B2, the “EC50 (read off the curve)” value was approximately 0.2 µg/mL.

Regarding B3, the “EC50 (read off the curve)” value is approximately 0.05 µg/mL.

Regarding B4, the “EC50 (read off the curve)” value is approximately 0.08 µg/mL.

For the molecule B1, the “EC50 (read off the curve)” value is approximately 0.06 µg/mL.

Another data set addresses T1, human IFP35 protein. Put plainly: affinity kinetics (fortebio); upper end given to the clone said to show the best improvement. Background: Biolayer interferometry detects binding as a change in optical thickness at a sensor tip.
B5: the “fold increase in affinity against AE001-H3+L3” value fell in the range of 2.5 to 4.6 fold.

The next data set concerns the molecule itself. Put plainly: crystal structure of IFP35 NID alone.
With B6, the binding result was “binds”.

Another data set deals with T1, human IFP35 protein. Put plainly: ELISA (OD450) on antigen IFP35. On the technique in general: An ELISA detects its analyte on a solid surface through an enzyme-linked reagent.
B7: the “EC50 (read off the curve)” value is approximately 0.1 µg/mL.

For B5, the “EC50 (read off the curve)” value was approximately 0.2 µg/mL.

For B8, the “EC50 (read off the curve)” value is approximately 0.2 µg/mL.

On to B9, for which the “EC50 (read off the curve)” value is approximately 0.2 µg/mL.

Another data set has as its target T1, human IFP35 protein. Put plainly: affinity kinetics (fortebio), antibody loaded.
B2 gave a Kd of 13.9 nM, a koff of 0.00201 s⁻¹ and an on-rate constant (kon) of 145000 M⁻¹ s⁻¹.

Molecule B7 had a Kd of 3.35 nM, a koff of 0.000508 s⁻¹ and a kon of 152000 M⁻¹ s⁻¹.

Consider B5, for which the Kd came out at 2.99 nM, the koff is 0.00044 s⁻¹ and the kon is 147000 M⁻¹ s⁻¹.

B8 came in with a dissociation constant (Kd) of 3.04 nM, a koff of 0.000454 s⁻¹ and a kon of 149000 M⁻¹ s⁻¹.

In turn, B9 yielded a dissociation constant Kd of 3.46 nM, a koff of 0.000524 s⁻¹ and a kon of 151000 M⁻¹ s⁻¹.
